The labels stand for the following.
T1: recombinant Factor VIII (CSL627, rVIII-SingleChain) (Homo sapiens (Human), UniProt P00451 20-2351)
T1 construct: also called FVIII
T1 sequence: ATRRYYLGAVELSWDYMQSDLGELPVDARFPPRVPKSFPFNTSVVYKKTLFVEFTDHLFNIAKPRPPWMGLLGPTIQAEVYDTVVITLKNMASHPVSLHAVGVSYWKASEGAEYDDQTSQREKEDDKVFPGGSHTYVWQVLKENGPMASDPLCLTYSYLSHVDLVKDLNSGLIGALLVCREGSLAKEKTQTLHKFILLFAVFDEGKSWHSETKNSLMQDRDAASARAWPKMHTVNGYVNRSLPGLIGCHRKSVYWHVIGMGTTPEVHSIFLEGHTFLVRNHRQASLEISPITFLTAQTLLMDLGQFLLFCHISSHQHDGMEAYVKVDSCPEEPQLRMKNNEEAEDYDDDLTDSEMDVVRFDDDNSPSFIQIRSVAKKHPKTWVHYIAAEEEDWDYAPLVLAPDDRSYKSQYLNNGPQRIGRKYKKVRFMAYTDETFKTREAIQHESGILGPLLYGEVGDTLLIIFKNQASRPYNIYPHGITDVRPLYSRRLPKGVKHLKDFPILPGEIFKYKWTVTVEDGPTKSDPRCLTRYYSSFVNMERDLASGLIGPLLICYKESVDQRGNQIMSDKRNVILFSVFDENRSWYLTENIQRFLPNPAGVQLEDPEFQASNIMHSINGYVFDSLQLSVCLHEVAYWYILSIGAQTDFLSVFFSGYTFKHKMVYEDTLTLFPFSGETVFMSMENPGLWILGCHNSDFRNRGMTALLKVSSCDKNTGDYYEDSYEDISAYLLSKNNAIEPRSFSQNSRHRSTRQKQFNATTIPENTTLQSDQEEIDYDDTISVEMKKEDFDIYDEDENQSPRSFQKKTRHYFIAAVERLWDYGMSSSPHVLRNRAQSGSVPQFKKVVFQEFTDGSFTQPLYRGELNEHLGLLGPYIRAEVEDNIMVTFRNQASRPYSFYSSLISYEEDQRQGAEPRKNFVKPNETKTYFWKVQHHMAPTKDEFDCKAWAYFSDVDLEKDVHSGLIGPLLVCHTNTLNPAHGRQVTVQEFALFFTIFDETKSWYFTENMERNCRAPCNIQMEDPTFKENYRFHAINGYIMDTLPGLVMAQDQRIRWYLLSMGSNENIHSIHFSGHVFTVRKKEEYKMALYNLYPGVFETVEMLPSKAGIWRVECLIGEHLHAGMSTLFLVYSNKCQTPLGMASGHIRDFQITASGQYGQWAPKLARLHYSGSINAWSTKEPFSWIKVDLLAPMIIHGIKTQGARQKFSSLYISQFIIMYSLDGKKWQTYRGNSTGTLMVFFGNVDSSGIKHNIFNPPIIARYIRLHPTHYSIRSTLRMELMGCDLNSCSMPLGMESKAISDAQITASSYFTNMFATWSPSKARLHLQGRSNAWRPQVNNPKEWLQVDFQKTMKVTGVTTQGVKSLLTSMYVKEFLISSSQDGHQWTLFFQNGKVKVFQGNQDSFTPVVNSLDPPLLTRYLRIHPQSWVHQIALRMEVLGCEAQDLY

B1: Hu-vWF[764-1270]-8His S764P-L765Q (other)
chain: PQSCRPPMVKLVCPADNLRAEGLECTKTCQNYDLECMSMGCVSGCLCPPGMVRHENRCVALERCPCFHQGKEYAPGETVKIGCNTCVCRDRKWNCTDHVCDATCSTIGMAHYLTFDGLKYLFPGECQYVLVQDYCGSNPGTFRILVGNKGCSHPSVKCKKRVTILVEGGEIELFDGEVNVKRPMKDETHFEVVESGRYIILLLGKALSVVWDRHLSISVVLKQTYQEKVCGLCGNFDGIQNNDLTSSNLQVEEDPVDFGNSWKVSSQCADTRKVPLDSSPATCHNNIMKQTMVDSSCRILTSDVFQDCNKLVDPEPYLDVCIYDTCSCESIGDCACFCDTIAAYAHVCAQHGKVVTWRTATLCPQSCEERNLRENGYECEWRYNSCAPACQVTCQHPEPLACPVQCVEGCHAHCPPGKILDELLQTCVDPEDCPVCEVAGRRFASGKKVTLNPSDPEHCQICHCDVVNLTCEACQEPGGLVVPPTDAPVSPTTLYVEDISEPPLHDFHHHHHHHH
B2: Hu-vWF[764-1270]-8His S764P-S766A (other)
chain: PLACRPPMVKLVCPADNLRAEGLECTKTCQNYDLECMSMGCVSGCLCPPGMVRHENRCVALERCPCFHQGKEYAPGETVKIGCNTCVCRDRKWNCTDHVCDATCSTIGMAHYLTFDGLKYLFPGECQYVLVQDYCGSNPGTFRILVGNKGCSHPSVKCKKRVTILVEGGEIELFDGEVNVKRPMKDETHFEVVESGRYIILLLGKALSVVWDRHLSISVVLKQTYQEKVCGLCGNFDGIQNNDLTSSNLQVEEDPVDFGNSWKVSSQCADTRKVPLDSSPATCHNNIMKQTMVDSSCRILTSDVFQDCNKLVDPEPYLDVCIYDTCSCESIGDCACFCDTIAAYAHVCAQHGKVVTWRTATLCPQSCEERNLRENGYECEWRYNSCAPACQVTCQHPEPLACPVQCVEGCHAHCPPGKILDELLQTCVDPEDCPVCEVAGRRFASGKKVTLNPSDPEHCQICHCDVVNLTCEACQEPGGLVVPPTDAPVSPTTLYVEDISEPPLHDFHHHHHHHH
B3: Hu-vWF[764-1270]-8His S764P-L765Y (other)
chain: PYSCRPPMVKLVCPADNLRAEGLECTKTCQNYDLECMSMGCVSGCLCPPGMVRHENRCVALERCPCFHQGKEYAPGETVKIGCNTCVCRDRKWNCTDHVCDATCSTIGMAHYLTFDGLKYLFPGECQYVLVQDYCGSNPGTFRILVGNKGCSHPSVKCKKRVTILVEGGEIELFDGEVNVKRPMKDETHFEVVESGRYIILLLGKALSVVWDRHLSISVVLKQTYQEKVCGLCGNFDGIQNNDLTSSNLQVEEDPVDFGNSWKVSSQCADTRKVPLDSSPATCHNNIMKQTMVDSSCRILTSDVFQDCNKLVDPEPYLDVCIYDTCSCESIGDCACFCDTIAAYAHVCAQHGKVVTWRTATLCPQSCEERNLRENGYECEWRYNSCAPACQVTCQHPEPLACPVQCVEGCHAHCPPGKILDELLQTCVDPEDCPVCEVAGRRFASGKKVTLNPSDPEHCQICHCDVVNLTCEACQEPGGLVVPPTDAPVSPTTLYVEDISEPPLHDFHHHHHHHH
B4: Hu-vWF[764-1270]-8His S764P-S766E (other)
chain: PLECRPPMVKLVCPADNLRAEGLECTKTCQNYDLECMSMGCVSGCLCPPGMVRHENRCVALERCPCFHQGKEYAPGETVKIGCNTCVCRDRKWNCTDHVCDATCSTIGMAHYLTFDGLKYLFPGECQYVLVQDYCGSNPGTFRILVGNKGCSHPSVKCKKRVTILVEGGEIELFDGEVNVKRPMKDETHFEVVESGRYIILLLGKALSVVWDRHLSISVVLKQTYQEKVCGLCGNFDGIQNNDLTSSNLQVEEDPVDFGNSWKVSSQCADTRKVPLDSSPATCHNNIMKQTMVDSSCRILTSDVFQDCNKLVDPEPYLDVCIYDTCSCESIGDCACFCDTIAAYAHVCAQHGKVVTWRTATLCPQSCEERNLRENGYECEWRYNSCAPACQVTCQHPEPLACPVQCVEGCHAHCPPGKILDELLQTCVDPEDCPVCEVAGRRFASGKKVTLNPSDPEHCQICHCDVVNLTCEACQEPGGLVVPPTDAPVSPTTLYVEDISEPPLHDFHHHHHHHH
B5: Hu-vWF[764-1270]-8His S764P-L765T (other)
chain: PTSCRPPMVKLVCPADNLRAEGLECTKTCQNYDLECMSMGCVSGCLCPPGMVRHENRCVALERCPCFHQGKEYAPGETVKIGCNTCVCRDRKWNCTDHVCDATCSTIGMAHYLTFDGLKYLFPGECQYVLVQDYCGSNPGTFRILVGNKGCSHPSVKCKKRVTILVEGGEIELFDGEVNVKRPMKDETHFEVVESGRYIILLLGKALSVVWDRHLSISVVLKQTYQEKVCGLCGNFDGIQNNDLTSSNLQVEEDPVDFGNSWKVSSQCADTRKVPLDSSPATCHNNIMKQTMVDSSCRILTSDVFQDCNKLVDPEPYLDVCIYDTCSCESIGDCACFCDTIAAYAHVCAQHGKVVTWRTATLCPQSCEERNLRENGYECEWRYNSCAPACQVTCQHPEPLACPVQCVEGCHAHCPPGKILDELLQTCVDPEDCPVCEVAGRRFASGKKVTLNPSDPEHCQICHCDVVNLTCEACQEPGGLVVPPTDAPVSPTTLYVEDISEPPLHDFHHHHHHHH
B6: Hu-vWF[764-1270]-8His S764P-L765W (other)
chain: PWSCRPPMVKLVCPADNLRAEGLECTKTCQNYDLECMSMGCVSGCLCPPGMVRHENRCVALERCPCFHQGKEYAPGETVKIGCNTCVCRDRKWNCTDHVCDATCSTIGMAHYLTFDGLKYLFPGECQYVLVQDYCGSNPGTFRILVGNKGCSHPSVKCKKRVTILVEGGEIELFDGEVNVKRPMKDETHFEVVESGRYIILLLGKALSVVWDRHLSISVVLKQTYQEKVCGLCGNFDGIQNNDLTSSNLQVEEDPVDFGNSWKVSSQCADTRKVPLDSSPATCHNNIMKQTMVDSSCRILTSDVFQDCNKLVDPEPYLDVCIYDTCSCESIGDCACFCDTIAAYAHVCAQHGKVVTWRTATLCPQSCEERNLRENGYECEWRYNSCAPACQVTCQHPEPLACPVQCVEGCHAHCPPGKILDELLQTCVDPEDCPVCEVAGRRFASGKKVTLNPSDPEHCQICHCDVVNLTCEACQEPGGLVVPPTDAPVSPTTLYVEDISEPPLHDFHHHHHHHH
B7: Hu-vWF[764-1270]-8His S764P-L765V (other)
chain: PVSCRPPMVKLVCPADNLRAEGLECTKTCQNYDLECMSMGCVSGCLCPPGMVRHENRCVALERCPCFHQGKEYAPGETVKIGCNTCVCRDRKWNCTDHVCDATCSTIGMAHYLTFDGLKYLFPGECQYVLVQDYCGSNPGTFRILVGNKGCSHPSVKCKKRVTILVEGGEIELFDGEVNVKRPMKDETHFEVVESGRYIILLLGKALSVVWDRHLSISVVLKQTYQEKVCGLCGNFDGIQNNDLTSSNLQVEEDPVDFGNSWKVSSQCADTRKVPLDSSPATCHNNIMKQTMVDSSCRILTSDVFQDCNKLVDPEPYLDVCIYDTCSCESIGDCACFCDTIAAYAHVCAQHGKVVTWRTATLCPQSCEERNLRENGYECEWRYNSCAPACQVTCQHPEPLACPVQCVEGCHAHCPPGKILDELLQTCVDPEDCPVCEVAGRRFASGKKVTLNPSDPEHCQICHCDVVNLTCEACQEPGGLVVPPTDAPVSPTTLYVEDISEPPLHDFHHHHHHHH
B8: Hu-vWF[764-1270]-8His S764P-S766D (other)
chain: PLDCRPPMVKLVCPADNLRAEGLECTKTCQNYDLECMSMGCVSGCLCPPGMVRHENRCVALERCPCFHQGKEYAPGETVKIGCNTCVCRDRKWNCTDHVCDATCSTIGMAHYLTFDGLKYLFPGECQYVLVQDYCGSNPGTFRILVGNKGCSHPSVKCKKRVTILVEGGEIELFDGEVNVKRPMKDETHFEVVESGRYIILLLGKALSVVWDRHLSISVVLKQTYQEKVCGLCGNFDGIQNNDLTSSNLQVEEDPVDFGNSWKVSSQCADTRKVPLDSSPATCHNNIMKQTMVDSSCRILTSDVFQDCNKLVDPEPYLDVCIYDTCSCESIGDCACFCDTIAAYAHVCAQHGKVVTWRTATLCPQSCEERNLRENGYECEWRYNSCAPACQVTCQHPEPLACPVQCVEGCHAHCPPGKILDELLQTCVDPEDCPVCEVAGRRFASGKKVTLNPSDPEHCQICHCDVVNLTCEACQEPGGLVVPPTDAPVSPTTLYVEDISEPPLHDFHHHHHHHH

The assay has as its target T1, recombinant Factor VIII (CSL627, …). In words: SPR, anti-His capture. Summed up: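 First, mutants in culture medium are loaded to 40-150 RU on anti-His-coated chip; next, 1 nM FVIII is passed over for 5 min and washout followed for 5 min; finally, 1:1 fitting of double-referenced data gives rate constants.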
As a reminder, the Kd is the free concentration of one partner at which half of the binding sites on the other are occupied at equilibrium, for simple one-to-one binding. One may read the koff as the rate constant with which the complex falls apart. As usually defined, the kon is the second-order rate constant of association. For the molecule B1, the Kd was 0.88 nM, the koff turned out to be 0.00714 s⁻¹ and the on-rate constant (kon) was found to be 8.12e+06 M⁻¹ s⁻¹.

As to B2, the Kd was found to be 0.0123 nM, the koff was found to be 0.000166 s⁻¹ and the kon worked out at 1.35e+07 M⁻¹ s⁻¹.

Take B3: the Kd turned out to be 0.355 nM, the koff was 0.0022 s⁻¹ and the kon is 6.19e+06 M⁻¹ s⁻¹.

Take B4: the Kd is 0.016 nM, the koff was found to be 0.000128 s⁻¹ and the kon worked out at 8.04e+06 M⁻¹ s⁻¹.

As to B5, the Kd worked out at 0.634 nM, the dissociation rate constant (koff) was determined as 0.00882 s⁻¹ and the kon worked out at 1.39e+07 M⁻¹ s⁻¹.

In the case of B6, the Kd was 0.645 nM, the koff came to 0.00514 s⁻¹ and the kon stood at 7.97e+06 M⁻¹ s⁻¹.

For B7, the equilibrium dissociation constant (Kd) was 0.355 nM, the koff was 0.0022 s⁻¹ and the on-rate constant (kon) is 6.19e+06 M⁻¹ s⁻¹.

As to B8, the dissociation constant (Kd) was determined as 0.0127 nM, the koff is 0.00012 s⁻¹ and the kon is 9.41e+06 M⁻¹ s⁻¹.

The values are drawn from patent US20190015483A1 (CSL BEHRING RECOMBINANT FACILITY, published 2019).
